Reference: US20080026996A1, “Selective Vpac2 Receptor Reptide Agonists” (ELI LILLY AND COMPANY, priority 2004, published 2008)
Where no end group is shown, it is not given here. [ ]: non-standard residue; d: D form. The star is where a group is joined. Orn = NCCC[C@H](N)C(=O)O; Hexanoyl = CCCCCC(=O)*; Aib = CC(C)(N)C(=O)O

B1: P296 (peptide)
peptide: Hexanoyl-HSDAVFTDNYTRL[Aib]KQVAA[Aib]KYLQSIKQGGPSSGAPPPS
modifications: ends and bridges not checked
B2: P349 (peptide)
peptide: Hexanoyl-HSDAVFTDNYTRLR[Aib]QVAA[Aib]KYLQSIK[Aib]KGGPSSGAPPPS
modifications: ends and bridges not checked
B3: P295 (peptide)
peptide: Hexanoyl-HSDAVFTDNYTRLR[Aib]QVAAK[Aib]YLQSIKQKGGPSSGAPPPS
modifications: ends and bridges not checked
B4: P345 (peptide)
peptide: Hexanoyl-HSDAVFTDNYT[Aib]LR[Aib]QVAA[Aib]KYLQSIKNKRYGGPSSGAPPPS
modifications: ends and bridges not checked
B5: P353 (peptide)
peptide: Hexanoyl-HSDAVFTDNYTRLR[Aib]QVAA[Aib]KYLQSI[dK][dK]GGPSSGAPPPS
modifications: ends and bridges not checked
B6: P366 (peptide)
peptide: Hexanoyl-HSDAVFTDNYTALR[Aib]QVAA[Aib]KYLQSI[Orn]N[Orn]GGPSSGAPPPS
B7: P236 (peptide)
peptide: Hexanoyl-HSDAVFTDNYTRLRKQVAAKKY[Aib]QSIKNKRYGGPSSGAPPPS
modifications: ends and bridges not checked
B8: P293 (peptide)
peptide: Hexanoyl-HSDAVFTDNYTRL[Aib]KQVAA[Aib]KYLQSIKQKGGPSSGAPPPS
modifications: ends and bridges not checked
B9: P258 (peptide)
peptide: Hexanoyl-HSDAVFTDNYTRLQ[Aib]QVAAKKYLQSIKNKRYGGPSSGAPPPS
modifications: ends and bridges not checked
B10: P265 (peptide)
peptide: Hexanoyl-HSDAVFTDNYTRLR[Aib]QVAALKYLQSIKNKRYGGPSSGAPPPS
modifications: ends and bridges not checked
B11: P262 (peptide)
peptide: Hexanoyl-HSDAVFTDNYTRLR[Aib]QVAAVKYLQSIKNKRYGGPSSGAPPPS
modifications: ends and bridges not checked
B12: P263 (peptide)
peptide: Hexanoyl-HSDAVFTDNYTRLR[Aib]QVAAAKYLQSIKNKRYGGPSSGAPPPS
modifications: ends and bridges not checked
B13: P316 (peptide)
peptide: HSDAVFTDNYTRLXXQVAAXKYLQSIKNKRYGGPSSGAPPPS
modifications: N-terminal hexanoyl (C6); hR at 14; Aib at 15, 20
B14: P320 (peptide)
peptide: HSDAVFTDNYTRLXXQVAAXKYLQSIKNKRYGGPSSGAPPPS
modifications: N-terminal hexanoyl (C6); Cit at 14; Aib at 15, 20
B15: P319 (peptide)
peptide: Hexanoyl-HSDAVFTDNYTRL[Orn][Aib]QVAA[Aib]KYLQSIKNKRYGGPSSGAPPPS
modifications: ends and bridges not checked
B16: P364 (peptide)
peptide: HSDAVFTDNYTXLRXQLAAXKYLQSIXNXGGPSSGAPPPS
modifications: N-terminal hexanoyl (C6); Orn at 12, 27, 29; Aib at 15, 20
B17: P365 (peptide)
peptide: HSDAVFTDNYTXLRXQIAAXKYLQSIXNXGGPSSGAPPPS
modifications: N-terminal hexanoyl (C6); Orn at 12, 27, 29; Aib at 15, 20
B18: P297 (peptide)
peptide: Hexanoyl-HSDAVFTDNYTRLR[Aib]QVAA[Aib]KYLQSIKQGGPSSGAPPPS
modifications: ends and bridges not checked
B19: P249 (peptide)
peptide: Hexanoyl-HSDAVFTDNYTRL[Aib]KQVAAKQYLQSIKNKRYGGPSSGAPPPS
modifications: ends and bridges not checked
B20: P259 (peptide)
peptide: Hexanoyl-HSDAVFTDNYTRL[Aib]KQVAALKYLQSIKNKRYGGPSSGAPPPS
modifications: ends and bridges not checked
B21: P269 (peptide)
peptide: Hexanoyl-HSDAVFTDNYTRL[Aib]KQVAAVKYLQSIKNKRYGGPSSGAPPPS
modifications: ends and bridges not checked
B22: P260 (peptide)
peptide: Hexanoyl-HSDAVFTDNYTRL[Aib]KQVAAAKYLQSIKNKRYGGPSSGAPPPS
modifications: ends and bridges not checked
B23: P250 (peptide)
peptide: Hexanoyl-HSDAVFTDNYTRLQKQVAA[Aib]KYLQSIKNKRYGGPSSGAPPPS
modifications: ends and bridges not checked
B24: P351 (peptide)
peptide: Hexanoyl-HSDAVFTDNYTRLR[Aib]QVAA[Aib]KYLQSIKKGGPSSGAPPPS
modifications: ends and bridges not checked
B25: P350 (peptide)
peptide: Hexanoyl-HSDAVFTDNYTRLR[Aib]QVAA[Aib]KYLQSIKPKGGPSSGAPPPS
modifications: ends and bridges not checked
B26: P307 (peptide)
peptide: Hexanoyl-HSDAVFTDNYTRLR[Orn]QVAAKKYLQSIKNKRYGGPSSGAPPPS
modifications: ends and bridges not checked
B27: P232 (peptide)
peptide: Hexanoyl-HSDAVFTDNYTRLRKQVAAKKYTQSIKNKRYGGPSSGAPPPS
B28: P355 (peptide)
peptide: Hexanoyl-HSDAVFTDNYTRLR[Aib]QVAA[Aib]KYLQSIK[Aib]GGPSSGAPPPS
modifications: ends and bridges not checked
B29: P229 (peptide)
peptide: Hexanoyl-HSDAVFTDNYTRLRKQVAAKKALQSIKNKRYGGPSSGAPPPS
B30: P298 (peptide)
peptide: Hexanoyl-HSDAVFTDNYTRLR[Aib]QVAAK[Aib]YLQSIKQGGPSSGAPPPS
modifications: ends and bridges not checked
B31: P82 (peptide)
peptide: HSDAVFTDNYTRLRKQVAAKKYLQSIKRGGPSSGAPPPS
B32: P354 (peptide)
peptide: HSDAVFTDNYTRLRXQVAAXKYLQSIKXGGPSSGAPPPS
modifications: N-terminal hexanoyl (C6); Aib at 15, 20; hR at 28
B33: P85 (peptide)
peptide: HSDAVFTDNYTRLRKQVAAKKYLQSIKKGGPSSGAPPPS
B34: P271 (peptide)
peptide: Hexanoyl-HSDAVFTDNYTRLRKQVAAKKYLQSIKNGRPSSGAPPPS
B35: P92 (peptide)
peptide: HSDAVFTDNYTRLRKQVAAKKYLQSIKNGRPSSGAPPPS
B36: P294 (peptide)
peptide: Hexanoyl-HSDAVFTDNYTRLR[Aib]QVAA[Aib]KYLQSIKQKGGPSSGAPPPS
modifications: ends and bridges not checked
B37: P301 (peptide)
peptide: Hexanoyl-HSDAVFTDNYTRLA[Aib]QVAA[Aib]KYLQSIKNKRYGGPSSGAPPPS
modifications: ends and bridges not checked
B38: P341 (peptide)
peptide: Hexanoyl-HSDAVFTDNYTRLR[Aib]QVAA[Aib]AYLQSIKNKRYGGPSSGAPPPS
modifications: ends and bridges not checked
B39: P317 (peptide)
peptide: Hexanoyl-HSDAVFTDNYTRLL[Aib]QVAA[Aib]KYLQSIKNKRYGGPSSGAPPPS
modifications: ends and bridges not checked
B40: P324 (peptide)
peptide: Hexanoyl-HSDAVFTDNYTRLR[Aib]QAAA[Aib]KYLQSIKNKRYGGPSSGAPPPS
modifications: ends and bridges not checked
B41: P302 (peptide)
peptide: Hexanoyl-HSDAVFTDNYTRLQ[Aib]QVAA[Aib]KYLQSIKNKRYGGPSSGAPPPS
modifications: ends and bridges not checked

The binders below were run against T1, human VPAC2 receptor (human, UniProt P41587 24-438) (assay: cell-based or functional assay).
T1 sequence (looked up): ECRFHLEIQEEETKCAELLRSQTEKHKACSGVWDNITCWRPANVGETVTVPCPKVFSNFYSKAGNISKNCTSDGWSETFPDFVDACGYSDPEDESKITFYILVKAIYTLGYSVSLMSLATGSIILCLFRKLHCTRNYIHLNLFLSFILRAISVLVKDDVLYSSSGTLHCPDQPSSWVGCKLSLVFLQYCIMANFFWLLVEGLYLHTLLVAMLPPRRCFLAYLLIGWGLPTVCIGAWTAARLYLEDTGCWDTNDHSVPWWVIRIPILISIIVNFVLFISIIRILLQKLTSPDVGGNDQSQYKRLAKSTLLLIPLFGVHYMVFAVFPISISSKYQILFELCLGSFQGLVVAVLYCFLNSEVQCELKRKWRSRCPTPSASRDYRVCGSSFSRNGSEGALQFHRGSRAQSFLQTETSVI

Binder | EC50 cAMP, Alpha Screen | EC50 cAMP, DiscoveRx
B1 | 6.69 nM | 
B2 | 0.08 nM | 
B3 | 0.39 nM | 
B4 | 1.17 nM | 
B5 | 0.18 nM | 
B6 | 2.6 nM | 
B7 | 0.12 nM | 
B8 | 1.89 nM | 
B9 | 0.17 nM | 
B10 | 0.21 nM | 
B11 | 0.24 nM | 
B12 | 0.07 nM | 
B13 | 0.3 nM | 
B14 | 0.49 nM | 
B15 | 0.26 nM | 
B16 | 0.11 nM | 
B17 | 0.13 nM | 
B18 | 0.36 nM | 
B19 | 0.93 nM | 
B20 | 1.08 nM | 
B21 | 1.02 nM | 

Binder | EC50 cAMP, Alpha Screen | EC50 cAMP, DiscoveRx
B22 | 0.83 nM | 
B23 | 0.18 nM | 
B24 | 0.11 nM | 
B25 | 0.13 nM | 
B26 | 0.32 nM | 
B27 | 1.94 nM | 
B28 | 0.1 nM | 
B29 | 2.6 nM | 
B30 | 0.5 nM | 
B31 | 15.2 nM | 
B32 | 0.14 nM | 
B33 | 22.2 nM | 
B34 | 0.12 nM | 
B35 | 10.2 nM | 8.2 nM
B36 | 0.24 nM | 
B37 | 0.89 nM | 
B38 | 0.38 nM | 
B39 | 0.36 nM | 
B40 | 0.23 nM | 
B41 | 0.45 nM | 
